This data set in a line: label from the status in PepcDB records.
Consider “MRSVTVSGFLTLIISGIMLIPSPAYSKIDTTLNTSSFIGAYLAGRVANHENKTDLAIKYFKKALTYKPENIETQVEMLEAMLFSGAFKEAVKQAQKLKKQGITNPFVSLTLSIESLIKKDYNKAKILLQLKTLPAANNPIPELIGAWATFGSGYQSQAITHLQKIQGPAWYKLFINYHLALMCDLAGHKQNAQKYFTQALNTQQATLIAPNTYEHIIIAYASFQLRSKMRIQALQTLKHGEQMLPGREIFKNIREKIEKGASLERLIKTPQQGTGEVLYNFGTTLNHKNSQRIARIFTQLSLILSPENDAIMFHLANISAKVNDLNQAIKLYRSLPQSSPYYRVGQLQLAFILANNNNHSEAIKLLTSLKKKNPNDRHILITLSALYMQDNKFTEATKTLDRAIAQITNFQQDDWKLFYQRGIAFERLQQWSKAENDLRKALDFFPNQPQVLNYLGYSLVERGEKLEESLHMLQKASTLQPQNSHILDSLGWAYYKLKQYNQAVQILGNAVRLQPEDPTLNDHLGDVYWRVGRKREAMFQWNHAIDGEAKNSKEIQEKLKFGLQ”, for which the protein production entry was “failed”.

For “MRSVVSFNEGWSFHEGFGQRLLETFDTAKSVSLPHTAVELPFSYFDETSYQRAFTYQKVLRWLPEFEGREVSLVFDAAMADSVVYLNGEEIIAHKDGYTPFEARLTGKLVKGENLVTVKIDGSENPDIPPFGGRIDYLTYAGIYRDVWLKVTDPVSIRNLKIETTDVLRPEKSATIRVDIANPEGRSFSATVTATLKQADGTVVATAATETIGSRTTLSFGGLTGIALWDITDPKLYDVTVELRTEHGSDRISTRFGFRTAEFTPEGFLLNGKPLKLRGLNRHQAFPYVGYAAGRSAQERDADIMKTVLKCNIVRTSHYPQSKWFLDRCDAIGLLVFEEIPGWQHIGDADWQQESIKNVRRMIERDWNHPSIIIWGVRINESQDDHDFYAETNRLARELDSTRQTGGVRYLTESELLEDVYTMNDFILGNEELPGANRPRTALRAQQENTGLSHKVPYLITEFNGHMHPTKIYDQEQRQAEHVRRHLEVLNAAYGDPDISGAIGWCMFDYNTHKDFGSGDRICYHGVMDMFREPKFAAYAYISQCDPSEEIVMKPVTFWARGERNIGGVLPLIILTNCDEVELQYGALSKRIGPDRENYPHLPHPPVVLDHRHFTADELGTWGLEWIDGTFTGYIGGEPVASLTLAADPLPTTLEVVADSSTLRARERDSTRVIIRALDQRGQRLPFMNDSISLKVHGPARIVGPTNVPLQGGTAGFWLEATGFTGEITVEAISTRFAPVTLGVTAA”, the protein production entry is given as “failed”.

As to “MRTALLEVGLEELPASEFHSILKQLEEKSAELLKAYRVSSGSVEVFVGSRRFGVILKNLPERQEDFTEEKKGPPLNVAYDENGKPTRALEGFLRNNNASLENVVHREGYVYLSRVVEGKPVEEVLPDLFRDLVLGLNFRKPMRWGSGEHEYIRPVHWIVAMVDGRVLDLEIFGLRSSRISYGKRYHAGSIEIPDSERYYESLKKGFVISSHLERKKFVLEQIDEFEKRSSMKIERDEELIEEIVAITEYPRIVVGQFDRKYLELPEEIIVTAVKHHQRSFIAHKGTLTNTFVAFQDGPQPPENVVKGYERVINARLEDARYYFQKDLETPLEKMNEKLKEIVFQEKLGTLYDKVERIKKISQRLCEDLKLPGSFTQKVLEAASICKADIASKVVYEFPELQGVMGRIYALREGINEEIATAIEDHYSEEPQTVIGSILGIADRIDTIVGNFAIGNVPTSSKDPYGLKSKADTIFRIIRKNEWDISLEELLTFASSLVGYRLSEELETFFAGRFYQFLINELGISFDVARAVNHLWKKPLR”, the protein production entry is reported as “failed”.

Regarding “MRTALLQNLFSLFPFDLHGDCDVPPARDGIRVSCIINFYGRLNVLAGILWSLAQQDFPRSAFEVILVEDRGGSDEGRALAEEFSSRLPIVYAPLDKQYGLMGYSRNFGLERSRGEFILFLDDDTIILQDDFLKTMVAYFDAQPGVSAIMPHGEASFAFVDDRYDFHDPFFMTSRCTAYRRTVLASLGGFMSSFIGQEDVEFVIRFHAAGNRCAAVPQLAYRHPPLYVTNLGKPMAVGSSFYGIRKRYPLVTWLLAVVNCSRHLPLVLAPSRKYREMGRFGLGFLWGVLTAPFRSGSLNYRLEHHHHHH”, the protein production entry is “failed”.

With “MRTAVIIPFYQREAGILSRALDSVDGQILPEGHSLTVFVIDDESPVSARSEVEGRQGKVPVRLIAQKNGGPGAARNAGLDAVAAEGFDHVAFLDSDDIWQPTHLADALDLLARGYDFHFCDHQRTDDDITYFERTPALRRMREERHAGVTVLDAEAPILAFDQPSIMAASVDTYLSQTSTVVVRQSFVETLRFDPRLRNAGEDQLFWLSLIAAGARTVVSWKMNVLCGRGVNVYFDAFDWKSTKVVDRTGYMLMFFHTVGRRLSLTASDRRTVADRIRRYRRAYSYLFLRALLQGRVPTLSLTWKLAALDPGLVPAMPLRFLAVLPNREAESLQWLEHHHHHH”, the protein production entry is recorded as “failed”.

On to “MRTDNINHWDVVAETYSEENNRGRNFHSQIYLAAVNELLGNVKGKCVLDAGCGDGFFSLELAQKGALVTAVDSSEAMLSIAKHKHVHDNLQYYNMDLTRELTFEDKFFDIVVANMLLMDIPEIELLIFEIARVLKKPGTFIFSITHPCFFLSDWEENENNIKTYKKIGNYLEERVEELNFWGKTLHYHRPLSRYMEAVEKAGMYVSSLREPVPPRELIELYPEQEYHCRIPSFVVIMAQMV”, for which the protein production entry is on record as “failed”.

For the sequence “MRTIIALETHDVRFPTSRELDGSDAMNPDPDYSAAYVVLRTDGAEDLAGYGLVFTIGRGNDVQTAAVAALAEHVVGLSVDKVIADLGAFARRLTNDSQLRWLGPEKGVMHMAIGAVINAAWDLAARAANKPLWRFIAELTPEQLVDTIDFRYLSDALTRDEALAILRDAQPQRAARTATLIEQGYPAYTTSPGWLGYSDEKLVRLAKEAVADGFRTIKLKVGANVQDDIRRCRLARAAIGPDIAMAVDANQRWDVGPAIDWMRQLAEFDIAWIEEPTSPDDVLGHAAIRQGITPVPVSTGEHTQNRVVFKQLLQAGAVDLIQIDAARVGGVNENLAILLLAAKFGVRVFPHAGGVGLCELVQHLAMADFVAITGKMEDRAIEFVDHLHQHFLDPVRIQHGRYLAPEVPGFSAEMHPASIAEFSYPDGRFWVEDLAA”, the protein production entry is listed as “not failed”.

In the case of “MRTISFFNNKGGVGKTTLSTNVAHYFALQGKRVLYVDCDPQCNATQLMLTEEQTESIYLDGLNDEVAERNSLAKTVYAIFVPLREGESQIAAEITPMRSERFGVDVLPGHPALSQIEDLMSDSWQSALGRQTGPFRRIHWAGQLAHAMERDDRYDVIFFDVGPSLGPFNRTVLLGCDAFVTPTATDLFSFHAFGNLARWFDAWVTQ”, the protein production result is listed as “failed”.

In the case of “MRTIWLVFIANFKRAYSNKKKFFINLLVPVAAIILAIVVNYVSSPSLNIGVNEKIKSKGGDRIVKMLKHTRGINAKVCHGELMKTEVILGKYDAVVTIKRKLGKNSFNNMSKYFEFYNVRDKKTNEDMKKLIKAYLVQNKTLNMERIVKDEQIGGLSKSERIIAFLATVLLITSVVNGAVIIRDREENTYYRYMYSPNSKFEYIFGNVIYNYIFSYIQLFIANSLMAIFGIYIGISFLKMLSYGLILTLVMTTFGTFIVCIFNKELYANMFSAAISLILSLVGGTFINYKIMPEGLRRISDVTPNRWIIKSVQYMQNGRFGSINPMMVLIAFSIMFSLAAVLVSKFHKVQFK”, the protein production entry is reported as “failed”.

Turning to “MRTLILAAALALAPLSAAAQDRAQTLADIKAEIAALQGQFNDLKRELVSTGAATSGAAGGSALQRMDAMEAAIAQVTAKAESLELKINRVVSDGSNRVGDLEFRVCELEEGCDIGAIGETKPLGGEASAAPAPTPAPAPAADPAGTFAVNEKADFDRAQEVLGQGDFRTAADLFKTFAETYTGGQLTYEAHYLRGEALSRLGETANAARAYLESFSGDPDGPRAPEALLKLGRALGDLRQTPEACVTLAEVGTRFPGSPSAAEAATTMQGLGCS”, the protein production result is “failed”.

These data come from a protein production outcome set (Wang et al. 2014).
